The source of these data is US20220289850 (published 2022).

What is called Kd is the constant that tells how readily two partners part at equilibrium.

Where a chain is given by its changes, count along the chain named. Some results are limits rather than exact numbers.

To fix the notation:
T1: cynomolgus integrin avb8 (cynomolgus)
T1 chain 1: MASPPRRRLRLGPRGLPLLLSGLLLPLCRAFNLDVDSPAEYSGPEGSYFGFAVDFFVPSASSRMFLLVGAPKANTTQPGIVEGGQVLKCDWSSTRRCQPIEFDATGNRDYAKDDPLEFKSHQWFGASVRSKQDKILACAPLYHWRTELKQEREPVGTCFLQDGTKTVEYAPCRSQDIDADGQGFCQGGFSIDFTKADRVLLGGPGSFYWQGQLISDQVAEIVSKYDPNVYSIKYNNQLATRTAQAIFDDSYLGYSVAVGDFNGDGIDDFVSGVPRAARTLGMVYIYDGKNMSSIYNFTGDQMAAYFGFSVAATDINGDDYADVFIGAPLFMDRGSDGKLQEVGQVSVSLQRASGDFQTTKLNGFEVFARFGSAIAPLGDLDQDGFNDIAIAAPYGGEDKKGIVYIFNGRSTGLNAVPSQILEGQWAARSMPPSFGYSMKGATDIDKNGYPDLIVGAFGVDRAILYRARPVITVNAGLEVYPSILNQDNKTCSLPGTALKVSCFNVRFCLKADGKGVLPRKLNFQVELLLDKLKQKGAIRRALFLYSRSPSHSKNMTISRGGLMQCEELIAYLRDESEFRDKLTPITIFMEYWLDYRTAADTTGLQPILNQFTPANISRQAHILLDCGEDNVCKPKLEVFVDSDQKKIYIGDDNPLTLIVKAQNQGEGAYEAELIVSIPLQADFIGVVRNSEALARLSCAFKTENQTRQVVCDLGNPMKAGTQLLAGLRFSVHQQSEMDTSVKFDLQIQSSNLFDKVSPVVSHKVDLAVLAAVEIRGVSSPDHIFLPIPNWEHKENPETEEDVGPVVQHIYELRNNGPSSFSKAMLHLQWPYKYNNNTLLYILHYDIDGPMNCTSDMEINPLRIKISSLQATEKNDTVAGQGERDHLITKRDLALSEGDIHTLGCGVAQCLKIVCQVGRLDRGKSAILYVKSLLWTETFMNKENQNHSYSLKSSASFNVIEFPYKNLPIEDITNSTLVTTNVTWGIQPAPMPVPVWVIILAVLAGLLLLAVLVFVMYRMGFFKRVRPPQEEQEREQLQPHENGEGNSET
T1 chain 2: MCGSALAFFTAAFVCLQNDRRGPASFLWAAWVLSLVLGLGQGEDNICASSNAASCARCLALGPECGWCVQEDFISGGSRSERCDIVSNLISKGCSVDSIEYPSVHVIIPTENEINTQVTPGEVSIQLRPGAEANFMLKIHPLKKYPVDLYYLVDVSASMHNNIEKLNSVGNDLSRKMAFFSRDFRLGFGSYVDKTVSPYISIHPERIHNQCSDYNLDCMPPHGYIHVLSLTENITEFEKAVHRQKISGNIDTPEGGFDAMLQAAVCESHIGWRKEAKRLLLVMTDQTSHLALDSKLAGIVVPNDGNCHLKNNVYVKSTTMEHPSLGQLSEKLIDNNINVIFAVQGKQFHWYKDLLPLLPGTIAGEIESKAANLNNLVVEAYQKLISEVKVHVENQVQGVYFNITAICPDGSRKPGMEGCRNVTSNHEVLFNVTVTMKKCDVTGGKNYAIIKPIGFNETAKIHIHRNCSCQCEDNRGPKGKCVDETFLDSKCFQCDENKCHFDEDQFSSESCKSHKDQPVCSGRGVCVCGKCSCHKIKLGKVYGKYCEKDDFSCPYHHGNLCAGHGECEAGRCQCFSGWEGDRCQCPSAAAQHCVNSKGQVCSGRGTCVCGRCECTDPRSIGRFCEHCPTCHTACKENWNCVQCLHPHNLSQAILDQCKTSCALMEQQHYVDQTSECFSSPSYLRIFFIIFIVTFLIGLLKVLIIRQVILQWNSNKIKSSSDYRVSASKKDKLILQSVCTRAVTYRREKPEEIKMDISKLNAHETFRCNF

B1: Mouse hybridoma ADWA-11 Fab (antibody, V domains shown)
VH: EVQLQQSGAELVRPGAFVKLSCKASGFNIKDYYMNWVLQRPEQGLEWIGWIDPDNGNTIYDPKFQGKASITADTSSNTAYLQLSSLTSEDTAVYYCARRLLMDYWGQGTSVTVSS
VL: DIVMTQAAPSVPVTPGESVSISCRSTKSLLHFNGNTYLFWFLQRPGQSPQRLIYYMSNLASGVPDRFSGRGSGTDFTLRISRVEAEDVGVYYCMQSLEYPFTFGTGTKLEIK
B2: ADWA11 VH05/VK01 (VH05-2_VK01) Fab (antibody, V domains shown)
VH: EVQLVESGGGLVQPGGSLRLSCAASGFNIKDYYMNWVRQAPGKGLEWVGWIDPDNGNTIYDPKFQGRFTISADTSKNSAYLQMNSLRAEDTAVYYCARRLLMDYWGQGTLVTVSS
VL: DIQMTQSPSSLSASVGDRVTITCRSTKSLLHFNGNTYLFWYQQKPGKAPKRLIYYMSNLASGVPSRFSGSGSGTDFTLTISSLQPEDFATYYCMQSLEYPFTFGQGTKVEIK
B3: ADWA11 2.4 Fab (antibody, V domains shown)
VH: B2 VH with N55Q, D61E
VL: B2 VL with L30S, N58S, M94Q, Q105G

This assay has as its target T1, cynomolgus integrin avb8. Briefly: SPR 25C.
B1 had a Kd of 0.507 nM.
In the case of B2, the equilibrium dissociation constant (Kd) was below 0.1 nM.
With B3, the Kd was below 0.2 nM.
